Results from the supplement of paper PMC10567573.

B1: C10orf62 (parent)
chain: TSECPSDKDKSPESHKAKNESWIK

Variants of: B1
Assay: protein stability index of a GFP-peptide fusion (GPS, HEK-293T) (PSI 1-6); higher = more stable
Settings: c terminus: a fixed tail appended
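Also: lentivirally expressed fusions sorted by FACS into six bins by GFP to DsRed ratio, PSI derived from sequencing read proportions per bin multiplied by bin number.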

| Variant | protein stability index |
| --- | --- |
| TPECPSDKDKSPESHKAKNESWIK [S2P] | 3.17 |
| TQECPSDKDKSPESHKAKNESWIK [S2Q] | 3.85 |
| TRECPSDKDKSPESHKAKNESWIK [S2R] | 4.43 |
| TTECPSDKDKSPESHKAKNESWIK [S2T] | 3.03 |
| TWECPSDKDKSPESHKAKNESWIK [S2W] | 3.64 |
| TYECPSDKDKSPESHKAKNESWIK [S2Y] | 3.47 |
| TSACPSDKDKSPESHKAKNESWIK [E3A] | 2.94 |
| TSCCPSDKDKSPESHKAKNESWIK [E3C] | 3.01 |
| TSDCPSDKDKSPESHKAKNESWIK [E3D] | 2.73 |
| TSGCPSDKDKSPESHKAKNESWIK [E3G] | 3.73 |
| TSHCPSDKDKSPESHKAKNESWIK [E3H] | 2.84 |
| TSICPSDKDKSPESHKAKNESWIK [E3I] | 2.14 |
| TSKCPSDKDKSPESHKAKNESWIK [E3K] | 2.92 |
| TSLCPSDKDKSPESHKAKNESWIK [E3L] | 3.5 |
| TSMCPSDKDKSPESHKAKNESWIK [E3M] | 2.88 |
| TSNCPSDKDKSPESHKAKNESWIK [E3N] | 3.36 |
| TSPCPSDKDKSPESHKAKNESWIK [E3P] | 4.09 |
| TSQCPSDKDKSPESHKAKNESWIK [E3Q] | 2.94 |
| TSRCPSDKDKSPESHKAKNESWIK [E3R] | 3.21 |
| TSSCPSDKDKSPESHKAKNESWIK [E3S] | 3.34 |
| TSTCPSDKDKSPESHKAKNESWIK [E3T] | 3.27 |
| TSVCPSDKDKSPESHKAKNESWIK [E3V] | 2.87 |
| TSWCPSDKDKSPESHKAKNESWIK [E3W] | 2.63 |
| TSYCPSDKDKSPESHKAKNESWIK [E3Y] | 2.73 |

| Variant | protein stability index |
| --- | --- |
| TSEAPSDKDKSPESHKAKNESWIK [C4A] | 3.53 |
| TSEDPSDKDKSPESHKAKNESWIK [C4D] | 3.17 |
| TSEEPSDKDKSPESHKAKNESWIK [C4E] | 3.55 |
| TSEFPSDKDKSPESHKAKNESWIK [C4F] | 3.33 |
| TSEGPSDKDKSPESHKAKNESWIK [C4G] | 3.94 |
| TSEHPSDKDKSPESHKAKNESWIK [C4H] | 3.34 |
| TSEIPSDKDKSPESHKAKNESWIK [C4I] | 3.92 |
| TSEKPSDKDKSPESHKAKNESWIK [C4K] | 3.51 |
| TSELPSDKDKSPESHKAKNESWIK [C4L] | 3.74 |
| TSEMPSDKDKSPESHKAKNESWIK [C4M] | 3.79 |
| TSENPSDKDKSPESHKAKNESWIK [C4N] | 3.4 |
| TSEPPSDKDKSPESHKAKNESWIK [C4P] | 3.39 |
| TSEQPSDKDKSPESHKAKNESWIK [C4Q] | 3.52 |
| TSERPSDKDKSPESHKAKNESWIK [C4R] | 3.15 |
| TSESPSDKDKSPESHKAKNESWIK [C4S] | 2.46 |
| TSETPSDKDKSPESHKAKNESWIK [C4T] | 3.28 |
| TSEWPSDKDKSPESHKAKNESWIK [C4W] | 2.58 |
| TSEYPSDKDKSPESHKAKNESWIK [C4Y] | 3.15 |
| TSECASDKDKSPESHKAKNESWIK [P5A] | 3.72 |
| TSECCSDKDKSPESHKAKNESWIK [P5C] | 2.8 |
| TSECDSDKDKSPESHKAKNESWIK [P5D] | 3.84 |
| TSECESDKDKSPESHKAKNESWIK [P5E] | 3.84 |
| TSECFSDKDKSPESHKAKNESWIK [P5F] | 3.28 |
| TSECGSDKDKSPESHKAKNESWIK [P5G] | 3.41 |

| Variant | protein stability index |
| --- | --- |
| TSECHSDKDKSPESHKAKNESWIK [P5H] | 3.75 |
| TSECISDKDKSPESHKAKNESWIK [P5I] | 3.86 |
| TSECKSDKDKSPESHKAKNESWIK [P5K] | 3.24 |
| TSECLSDKDKSPESHKAKNESWIK [P5L] | 3.33 |
| TSECMSDKDKSPESHKAKNESWIK [P5M] | 3.08 |
| TSECNSDKDKSPESHKAKNESWIK [P5N] | 3.94 |
| TSECQSDKDKSPESHKAKNESWIK [P5Q] | 3.32 |
| TSECRSDKDKSPESHKAKNESWIK [P5R] | 3.45 |
| TSECSSDKDKSPESHKAKNESWIK [P5S] | 3 |
| TSECTSDKDKSPESHKAKNESWIK [P5T] | 2.9 |
| TSECVSDKDKSPESHKAKNESWIK [P5V] | 4.14 |
| TSECWSDKDKSPESHKAKNESWIK [P5W] | 3.04 |
| TSECYSDKDKSPESHKAKNESWIK [P5Y] | 3.59 |
| TSECPADKDKSPESHKAKNESWIK [S6A] | 4.02 |
| TSECPCDKDKSPESHKAKNESWIK [S6C] | 3.17 |
| TSECPDDKDKSPESHKAKNESWIK [S6D] | 3.51 |
| TSECPEDKDKSPESHKAKNESWIK [S6E] | 3.71 |
| TSECPFDKDKSPESHKAKNESWIK [S6F] | 3.34 |
| TSECPGDKDKSPESHKAKNESWIK [S6G] | 3.62 |
| TSECPHDKDKSPESHKAKNESWIK [S6H] | 3.56 |
| TSECPIDKDKSPESHKAKNESWIK [S6I] | 3.35 |
| TSECPKDKDKSPESHKAKNESWIK [S6K] | 2.95 |
| TSECPLDKDKSPESHKAKNESWIK [S6L] | 3.82 |
| TSECPMDKDKSPESHKAKNESWIK [S6M] | 2.94 |

| Variant | protein stability index |
| --- | --- |
| TSECPNDKDKSPESHKAKNESWIK [S6N] | 3.76 |
| TSECPPDKDKSPESHKAKNESWIK [S6P] | 3.37 |
| TSECPQDKDKSPESHKAKNESWIK [S6Q] | 3.75 |
| TSECPRDKDKSPESHKAKNESWIK [S6R] | 2.75 |
| TSECPTDKDKSPESHKAKNESWIK [S6T] | 2.92 |
| TSECPVDKDKSPESHKAKNESWIK [S6V] | 3.27 |
| TSECPWDKDKSPESHKAKNESWIK [S6W] | 2.71 |
| TSECPYDKDKSPESHKAKNESWIK [S6Y] | 2.82 |
| TSECPSAKDKSPESHKAKNESWIK [D7A] | 2.6 |
| TSECPSCKDKSPESHKAKNESWIK [D7C] | 3.2 |
| TSECPSEKDKSPESHKAKNESWIK [D7E] | 2.57 |
| TSECPSFKDKSPESHKAKNESWIK [D7F] | 2.84 |
| TSECPSGKDKSPESHKAKNESWIK [D7G] | 3.38 |
| TSECPSHKDKSPESHKAKNESWIK [D7H] | 2.88 |
| TSECPSIKDKSPESHKAKNESWIK [D7I] | 2.3 |
| TSECPSKKDKSPESHKAKNESWIK [D7K] | 3.55 |
| TSECPSLKDKSPESHKAKNESWIK [D7L] | 2.81 |
| TSECPSMKDKSPESHKAKNESWIK [D7M] | 2.82 |
| TSECPSNKDKSPESHKAKNESWIK [D7N] | 3.11 |
| TSECPSPKDKSPESHKAKNESWIK [D7P] | 3.6 |
| TSECPSQKDKSPESHKAKNESWIK [D7Q] | 3.2 |
| TSECPSRKDKSPESHKAKNESWIK [D7R] | 2.35 |
